Test results: patent US20210301021A1 (NANJING GENSCRIPT BIOTECH, published 2021)
Numbering of substitutions follows the chain as printed.

B1: AH01674 humanized anti-human CTLA4 monoclonal antibody (human IgG1/kappa) (antibody, V domains shown)
VH: QVQLVQSGAEVKKPGASVKVSCKASGYTFTSYWINWVRQAPGQGLEWMGRIAPGSGTTYYNEMFTGRVTMTRDTSTSTAYMELSSLRSEDTAVYYCARGDYFDYWGQGTMVTVSS
VL: DIQLTQSPSFLSASVGDRVTITCSASKSVSYIHWYQQKPGKAPKLLIYDTSTLASGVPPRFSGSGSGPEFTLTISSLQPEDFATYYCQQRTTYPLTFGQGTKLEIK
notes: also called AH1674
B2: AH01679 humanized anti-human CTLA4 monoclonal antibody (human IgG1/kappa) (antibody, V domains shown)
VH: B1 VH with K12V, V20L, M48I, A79V
VL: B1 VL with P59S, P68T
notes: also called AH1679
B3: AH01672 humanized anti-human CTLA4 monoclonal antibody (human IgG1/kappa) (antibody, V domains shown)
VH: B1 VH with R38K, G106D
VL: B1 VL with T71S, Q99G
notes: also called AH1672
B4: AH01695 humanized anti-human CTLA4 monoclonal antibody (human IgG1/kappa) (antibody, V domains shown)
VH: B1 VH with M70L, M81I, Y95F, R98I
VL: B1 VL with P59S, P68T
notes: also called AH1695
B5: Chimeric antibody (antibody, V domains shown)
VH: QVHLQQSGDVLVKPGASVNLSCKASGYTFTSYWINWIKQRPGQGLEWIGRIAPGSGTTYYNEMFTGKATLTVVTSSTTAYIQLSSLSFEDSAVYFCARGDYFDYWDQGTTLTVSS
VL: QIVLTQSPAIMSASPGGKVTITCSASKSVSYIHWFQQKPGTSPKLLIYDTSTLASGVPPRFSGSGSGPSYSLTISRMEAEDAATYYCQQRTTYPLTFGGGTKLEVR
notes: also called Chimeric IgG
B6: AH01674 AAPH (AH01674 after the oxidation pressure test) (antibody, V domains shown)
VH: B1 VH
VL: B1 VL
modifications: Met 63 oxidised in 75.616% of the sample (AAPH, 40 C, 24 h)
notes: Human IgG1/kappa, treated with AAPH; also called AH01674 AAPH-24 h
B7: AH01695 AAPH (AH01695 after the oxidation pressure test) (antibody, V domains shown)
VH: B1 VH with M70L, M81I, Y95F, R98I
VL: B1 VL with P59S, P68T
modifications: Met 63 oxidised in 70.898% of the sample; Met 250 (constant region of the heavy chain) oxidised in 26.143% (AAPH, 40 C, 24 h)
notes: Human IgG1/kappa, treated with AAPH; also called AH01695 AAPH-24 h
B8: Chimeric antibody AAPH (chimeric antibody after the oxidation pressure test) (antibody, V domains shown)
VH: B5 VH
VL: B5 VL
modifications: Met 63 oxidised in 62.144% of the sample (AAPH, 40 C, 24 h)
notes: Same protein as the chimeric antibody, treated with AAPH; also called Chimeric antibody AAPH-24 h
B9: AH01674 (prokaryotic expression antibody product, CBM library) (Fab, V domains shown)
VH: B1 VH
VL: B1 VL
notes: Prokaryotic expression product from Phage-Fab / FASEBA-Fab plasmids
B10: AH01696 (prokaryotic expression antibody product, 5BM library) (Fab, V domains shown)
VH: VQLVQSGAEVVKPGASVKVSCKASGYTFTSYWINWIRQAPGQGLEWIGRIAPGSGTTYYNEMFTGRVTLTRDTSTSTAYMELSSLRSEDTAVYYCARGDYFDYWDQGTMVTVSS
VL: B1 VL with Y35F, P59S, P68T, F70Y
notes: as for B9
B11: AH01672 (prokaryotic expression antibody product, CBM library) (Fab, V domains shown)
VH: B1 VH with R38K, G106D
VL: B1 VL with T71S, Q99G
notes: as for B9
B12: AH01695 (prokaryotic expression antibody product, 5BM library) (Fab, V domains shown)
VH: B1 VH with M70L, M81I, Y95F, R98I
VL: B1 VL with P59S, P68T
notes: as for B9
B13: AH01679 (prokaryotic expression antibody product, 5BM library) (Fab, V domains shown)
VH: B1 VH with K12V, V20L, M48I, A79V
VL: B1 VL with P59S, P68T
notes: as for B9
B14: AH01686 (prokaryotic expression antibody product, 5BM library) (Fab, V domains shown)
VH: B1 VH with K12V, V37I, R38K, M48I, M70L, M81I, Y95F
VL: B1 VL with P59S, P68T
notes: as for B9
B15: AH01653 (prokaryotic expression antibody product, CBM library) (Fab, V domains shown)
VH: B1 VH with Q3H, R38K, G106D
VL: B1 VL with P59S, F70Y, Q99G
B16: AH01704 (prokaryotic expression antibody product, 5BM library) (Fab, V domains shown)
VH: B1 VH with K12V, R38K, M70L, Y95F
VL: B1 VL with P59S, P68T, F70Y
notes: as for B9
B17: AH01696 humanized anti-human CTLA4 monoclonal antibody (human IgG1/kappa) (antibody, V domains shown)
VH: B10 VH
VL: B1 VL with Y35F, P59S, P68T, F70Y
B18: AH01686 humanized anti-human CTLA4 monoclonal antibody (human IgG1/kappa) (antibody, V domains shown)
VH: B1 VH with K12V, V37I, R38K, M48I, M70L, M81I, Y95F
VL: B1 VL with P59S, P68T
B19: AH01704 humanized anti-human CTLA4 monoclonal antibody (human IgG1/kappa) (antibody, V domains shown)
VH: B1 VH with K12V, R38K, M70L, Y95F
VL: B1 VL with P59S, P68T, F70Y

Target: T1, CTLA-4 on the functional cells of the Promega anti-CTLA-4 blocking assay kit (UniProt P16410 36-223, limits assumed)
T1 sequence (looked up): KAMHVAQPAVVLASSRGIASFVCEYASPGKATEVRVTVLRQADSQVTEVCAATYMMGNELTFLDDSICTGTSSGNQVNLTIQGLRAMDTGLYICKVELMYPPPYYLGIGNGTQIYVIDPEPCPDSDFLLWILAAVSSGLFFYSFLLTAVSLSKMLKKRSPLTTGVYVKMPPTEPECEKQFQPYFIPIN
Test: cell-based or functional assay

Binder | EC50 (µg/ml), luciferase reporter, Promega anti-CTLA-4 blocking assay (CD80/CD86 aAPC/Raji cells with functional cells expressing CTLA-4)
B1 | 1.11 µg/mL
B2 | 17.1 µg/mL
B3 | 7.31 µg/mL
B4 | 5.46 µg/mL
B5 | 3.96 µg/mL

Target: T2, CTLA4/His (human, UniProt P16410 36-161)
T2 construct: not shown: His tag
T2 sequence (looked up): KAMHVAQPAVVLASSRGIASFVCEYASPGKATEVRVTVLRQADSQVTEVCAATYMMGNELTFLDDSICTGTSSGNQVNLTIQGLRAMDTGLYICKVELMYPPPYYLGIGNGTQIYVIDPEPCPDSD
Test: SPR (Biacore), after AAPH oxidation, analyte CTLA4/His

Binder | Kd | koff | kon
B6 | 30.5 pM | 2.19e-05 s⁻¹ | 719000 M⁻¹ s⁻¹
B7 | 131 pM | 8.75e-05 s⁻¹ | 670000 M⁻¹ s⁻¹
B8 | 48.7 pM | 2.78e-05 s⁻¹ | 570000 M⁻¹ s⁻¹

Target: T2, CTLA4/His
Test: SPR (Biacore), untreated control of the oxidation pressure test, analyte CTLA4/His

Binder | Kd | koff | kon
B1 | 39.5 pM | 2.98e-05 s⁻¹ | 753000 M⁻¹ s⁻¹
B4 | 59.4 pM | 4.55e-05 s⁻¹ | 767000 M⁻¹ s⁻¹
B5 | 21.9 pM | 8.16e-06 s⁻¹ | 372000 M⁻¹ s⁻¹

Target: T3, human CTLA4-Fc recombinant protein (human, UniProt P16410 36-161)
T3 construct: not shown: Fc part
T3 sequence (looked up): T2 sequence (looked up)
Test: kinetics of the prokaryotic expression product, analyte CTLA4/Fc, 1:1 binding model

Binder | Kd
B9 | 15.4 pM
B10 | 0.00373 pM
B11 | 14.5 pM
B12 | 0.0106 pM
B13 | 0.0431 pM
B14 | 0.0433 pM
B15 | 14.9 pM
B16 | 0.019 pM

Target: T2, CTLA4/His
Test: SPR, Biacore 8K, antibody captured on the chip, antigen as analyte, 1:1 binding model

Binder | Kd | koff | kon
B1 | ≤ 14.2 pM | ≤ 1e-05 s⁻¹ | 705000 M⁻¹ s⁻¹
B17 | 42.9 pM | 2.77e-05 s⁻¹ | 646000 M⁻¹ s⁻¹
B2 | ≤ 13.4 pM | ≤ 1e-05 s⁻¹ | 748000 M⁻¹ s⁻¹
B3 | ≤ 14.5 pM | ≤ 1e-05 s⁻¹ | –
B4 | ≤ 15.3 pM | ≤ 1e-05 s⁻¹ | 655000 M⁻¹ s⁻¹
B18 | 38.8 pM | 3.18e-05 s⁻¹ | 820000 M⁻¹ s⁻¹
B19 | 14.4 pM | 1.12e-05 s⁻¹ | 780000 M⁻¹ s⁻¹
B5 | ≤ 23 pM | – | 434000 M⁻¹ s⁻¹

Target: T2, CTLA4/His
Test: SPR, Biacore 8K, antibody captured on the chip, antigen as analyte, 1:1 binding model; chimeric antibody, analyte CTLA4/His (Table 4)

Binder | koff
B5 | ≤ 1e-05 s⁻¹

Target: T2, CTLA4/His
Test: SPR, Biacore 8K, antibody captured on the chip, antigen as analyte, 1:1 binding model; Table 4, analyte CTLA4/His; Rmax 38.2, Chi^2 5.48E-02

Binder | kon
B3 | 690000 M⁻¹ s⁻¹

Target: T3, human CTLA4-Fc recombinant protein
Test: kinetics of the prokaryotic expression product, analyte CTLA4/Fc, 1:1 binding model; prokaryotic expression product, analyte CTLA4/Fc (Table 2)

Binder | koff
B13 | < 1e-05 s⁻¹
